Tests used:
[1] = molecular target: T1, human complement component 2 (C2), purified protein (human, UniProt P06681 21-752); assay: SPR, Biacore T200, nanobody immobilised on a CM5 chip, human C2 2.97 to 248 nM as analyte, 1:1 Langmuir model
T1 construct: mature; Purified human C2 (Complement Tech); called 'Full-length C2' in the ELISA; In the serum-based functional assays the C2 is that of normal human serum; also called human C2; full-length C2
T1 sequence (looked up): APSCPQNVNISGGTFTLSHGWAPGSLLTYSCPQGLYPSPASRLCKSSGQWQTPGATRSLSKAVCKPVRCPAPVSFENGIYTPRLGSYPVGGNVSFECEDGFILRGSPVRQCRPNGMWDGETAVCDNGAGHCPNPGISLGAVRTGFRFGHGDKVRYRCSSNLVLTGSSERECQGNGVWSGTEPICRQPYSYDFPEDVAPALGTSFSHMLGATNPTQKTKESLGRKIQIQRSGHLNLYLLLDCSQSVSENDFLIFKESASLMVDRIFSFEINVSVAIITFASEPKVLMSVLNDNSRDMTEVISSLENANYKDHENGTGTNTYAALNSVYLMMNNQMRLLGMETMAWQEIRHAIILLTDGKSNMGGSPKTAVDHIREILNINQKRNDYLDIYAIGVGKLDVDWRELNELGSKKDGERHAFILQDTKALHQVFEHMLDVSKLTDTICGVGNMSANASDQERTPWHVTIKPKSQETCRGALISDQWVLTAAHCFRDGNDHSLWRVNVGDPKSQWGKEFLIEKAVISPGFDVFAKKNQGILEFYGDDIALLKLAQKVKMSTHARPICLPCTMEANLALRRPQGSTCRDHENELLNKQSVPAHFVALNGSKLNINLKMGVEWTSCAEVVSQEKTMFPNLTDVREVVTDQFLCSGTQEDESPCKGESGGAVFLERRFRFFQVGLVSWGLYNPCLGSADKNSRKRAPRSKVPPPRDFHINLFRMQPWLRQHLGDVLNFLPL

C2b fragment of human C2 = molecular target: T2, C2b fragment of human C2 (human, UniProt P06681 21-243); assay: pull-down of C1s-cleaved C2 with His-tagged nanobody on cobalt resin, western blot with goat anti-C2 polyclonal antibody
T2 construct: domain: C2b; also called smaller fragment C2b
T2 sequence (looked up): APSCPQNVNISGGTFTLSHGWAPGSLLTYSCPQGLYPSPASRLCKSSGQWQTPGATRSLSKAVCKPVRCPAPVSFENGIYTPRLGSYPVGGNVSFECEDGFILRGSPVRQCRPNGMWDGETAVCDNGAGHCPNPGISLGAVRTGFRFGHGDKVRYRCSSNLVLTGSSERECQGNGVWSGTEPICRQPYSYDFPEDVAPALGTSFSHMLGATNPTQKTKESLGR

[2] = molecular target: T3, human C2b (small fragment of C2) (human, UniProt P06681); assay: ELISA
T3 chain: T1 sequence (looked up)

[3] = molecular target: T1, human complement component 2 (C2), …; assay: cell-based or functional assay

- Kd [1]: 3.03 nM
- koff [1]: 0.000395 s⁻¹
- kon [1]: 131000 M⁻¹ s⁻¹
- binding result (C2b fragment of human C2): no binding
- binding result [2]: no binding
- MicroVue CH50 Eq EIA (C5b-9 generation, classical pathway, normal human serum), EC50 [3]: 53 nM
B1: Clone 1B10 C2 nanobody (Nab1B10), monovalent, His-tagged (VHH)
VHH: QVQLQESGGGLVQAGGSLRLSCAASGHTFRSYYMGWFRQAPGKEREFVASISWTGGSTEYADSVKGRFTISRDNAKNTVYLQMNSLKPEDTAAYYCAADYSGDFLLSDLDSWGQGTQVTVSS
notes: Alpaca VHH expressed in E. coli BL21 from the pMES4 vector; single 15 kDa band on SDS-PAGE; also called NablBlO; Nabl BIO; not shown: His tag (monovalent form is 'His-tagged', purified on cobalt resin)
- classical complement pathway-mediated hemolytic assay (EShA, normal human serum), IC50 [3]: ~3 nM

— patent EP4676952A2 (dated 2026)
